# Measured values published in patent US20260125451A1.
# B1: Telitacicept (RCT-18) (Fc fusion)
# chain: SRVDQEERFPQGLWTGVAMRSCPEEQYWDPLLGTCMSCKTICNHQSQRTCAAFCRSLSCRKEQGKFYDHLLRDCISCASICGQHPKQCAYFCENKLRSPVNLPPELDKTHTCPPCPAPEAEGAPSVFLFPPKPKDTLMISRTPEVTCVVVDVSHEDPEVKFNWYVDGVEVHNAKTKPREEQYNSTYRVVSVLTVLHQDWLNGKEYKCKVSNKALPSSIEKTISKAKGQPREPQVYTLPPSRDELTKNQVSLTCLVKGFYPSDIAVEWESNGQPENNYKTTPPVLDSDGSFFLYSKLTVDKSRWQQGNVFSCSVMHEALHNHYTQKSLSLSPGK
# B2: B637302 (protein)
# heavy: EVQLVQSGAEVKKPGESLKISCKGSGYIFTNYWIAWVRQMPGKGLESMGIIYPGDSDIRYSPSFQGQVTISADKSITTAYLQWSSLKASDTAMYYCARHDIEGFDYWGRGTLVTVSSASTKGPSVFPLAPSSKSTSGGTAALGCLVKDYFPEPVTVSWNSGALTSGVHTFPAVLQSSGLYSLSSVVTVPSSSLGTQTYICNVNHKPSNTKVDKRVEPKSCDKTHTCPPCPAPEFEGGPSVFLFPPKPKDTLMISRTPEVTCVVVDVSHEDPEVKFNWYVDGVEVHNAKTKPREEQYNSTYRVVSVLTVLHQDWLNGKEYKCKVSNKALPASIEKTISKAKGQPREPQVYTLPPSRDELTKNQVSLTCLVKGFYPSDIAVEWESNGQPENNYKTTPPVLDSDGSFFLYSKLTVDKSRWQQGNVFSCSVMHEALHNHYTQKSLSLSPGK
# light: EIVLTQSPGTLSLSPGERATLSCRASQSVSSSFFAWYQQKPGQAPRLLIYGASSRATGIPDRLSGSGSGTDFTLTITRLEPEDFAVYYCQQYDSSAITFGQGTRLEIKRTVAAPSVFIFPPSDEQLKSGTASVVCLLNNFYPREAKVQWKVDNALQSGNSQESVTEQDSKDSTYSLSSTLTLSKADYEKHKVYACEVTHQGLSSPVTKSFNRGECGGGGSGGGGSMLQMAGQCSQNEYFDSLLHACIPCQLRCSSNTPPLTCQRYCSTSCREEQGEFYDHLLRDCISCASICGQHPKQCAAFCE
# B3: B606401 (protein)
# heavy: B2 heavy
# light: EIVLTQSPGTLSLSPGERATLSCRASQSVSSSFFAWYQQKPGQAPRLLIYGASSRATGIPDRLSGSGSGTDFTLTITRLEPEDFAVYYCQQYDSSAITFGQGTRLEIKRTVAAPSVFIFPPSDEQLKSGTASVVCLLNNFYPREAKVQWKVDNALQSGNSQESVTEQDSKDSTYSLSSTLTLSKADYEKHKVYACEVTHQGLSSPVTKSFNRGECGGGGSGGGGSSTSCREEQGEFYDHLLRDCISCASICGQHPKQCAAFCE
# B4: B746201 (protein)
# heavy: EVQLVQSGAEVKKPGESLKISCKGSGYIFTNYWIAWVRQMPGKGLESMGIIYPGDSDIRYSPSFQGQVTISADKSITTAYLQWSSLKASDTAMYYCARHDIEGFDYWGRGTLVTVSSASTKGPSVFPLAPSSKSTSGGTAALGCLVKDYFPEPVTVSWNSGALTSGVHTFPAVLQSSGLYSLSSVVTVPSSSLGTQTYICNVNHKPSNTKVDKRVEPKSCDKTHTCPPCPAPEFEGGPSVFLFPPKPKDTLMISRTPEVTCVVVDVSHEDPEVKFNWYVDGVEVHNAKTKPREEQYNSTYRVVSVLTVLHQDWLNGKEYKCKVSNKALPASIEKTISKAKGQPREPQVYTLPPSRDELTKNQVSLTCLVKGFYPSDIAVEWESNGQPENNYKTTPPVLDSDGSFFLYSKLTVDKSRWQQGNVFSCSVMHEALHNHYTQKSLSLSPGKGGGGSGGGGSGGGGSMLQMAGQCSQNEYFDSLLHACIPCQLRCSSNTPPLTCQRYCSTSCREEQGEFYDHLLRDCISCASICGQHPKQCAAFCE
# light: EIVLTQSPGTLSLSPGERATLSCRASQSVSSSFFAWYQQKPGQAPRLLIYGASSRATGIPDRLSGSGSGTDFTLTITRLEPEDFAVYYCQQYDSSAITFGQGTRLEIKRTVAAPSVFIFPPSDEQLKSGTASVVCLLNNFYPREAKVQWKVDNALQSGNSQESVTEQDSKDSTYSLSSTLTLSKADYEKHKVYACEVTHQGLSSPVTKSFNRGEC
# B5: B805201 (protein)
# heavy: EVQLVQSGAEVKKPGESLKISCKGSGYIFTNYWIAWVRQMPGKGLESMGIIYPGDSDIRYSPSFQGQVTISADKSITTAYLQWSSLKASDTAMYYCARHDIEGFDYWGRGTLVTVSSASTKGPSVFPLAPSSKSTSGGTAALGCLVKDYFPEPVTVSWNSGALTSGVHTFPAVLQSSGLYSLSSVVTVPSSSLGTQTYICNVNHKPSNTKVDKRVEPKSCDKTHTCPPCPAPEFEGGPSVFLFPPKPKDTLMISRTPEVTCVVVDVSHEDPEVKFNWYVDGVEVHNAKTKPREEQYNSTYRVVSVLTVLHQDWLNGKEYKCKVSNKALPASIEKTISKAKGQPREPQVYTLPPSRDELTKNQVSLTCLVKGFYPSDIAVEWESNGQPENNYKTTPPVLDSDGSFFLYSKLTVDKSRWQQGNVFSCSVMHEALHNHYTQKSLSLSPGKGGGGSGGGGSGGGGSSTSCREEQGEFYDHLLRDCISCASICGQHPKQCAAFCE
# light: B4 light
# Molecular target: BAFF and ARPIL
# Assay: cell-based or functional assay
Binder,"CD27+ CD38+ plasma cell count, mean, BAFF + APRIL-induced, drug at 10 nM","CD27+ CD38+ plasma cell count, mean, BAFF + APRIL-induced, drug at 100 nM","CD27+ CD38+ plasma cell count, mean, BAFF + APRIL-induced, drug at 1000 nM"
B1,2450 count,510 count,230 count
B2,563 count,482 count,137 count
B3,654 count,549 count,426 count
B4,575 count,520 count,410 count
B5,434 count,426 count,438 count
